Assay results taken from patent US20260193293A1, “PEPTIDES CAPABLE OF INHIBITING PROTEIN-PROTEIN INTERACTIONS AT GABAB1A SUBUNIT AND USES THEREOF” (UNIVERSITY OF COPENHAGEN, priority 2022, published 2026).
Values belong to the binder of their own block, whether it stands above or below them. Starred links: 1 amine or outer side, 2 acyl side, 3 side chain; linkers in the order of their positions; H or OH if unused. Non-standard residues stand in square brackets, D forms with d. Tyr(Bzl) = Obtyr, O-benzyl-L-tyrosine, O=C([C@H](Cc1ccc(OCc2ccccc2)cc1)N[*:1])[*:2]; Tyr(Et) = Oetyr, O-ethyl-L-tyrosine, CCOc1ccc(C[C@H](N[*:1])C(=O)[*:2])cc1; Tyr(Me) = Omtyr, O-methyl-L-tyrosine, COc1ccc(C[C@H](N[*:1])C(=O)[*:2])cc1; Obtyr = O-benzyl-L-tyrosine, O=C([C@H](Cc1ccc(OCc2ccccc2)cc1)N[*:1])[*:2]; Oetyr = O-ethyl-L-tyrosine, CCOc1ccc(C[C@H](N[*:1])C(=O)[*:2])cc1; Phe(4-NH2) = Nc1ccc(C[C@H](N)C(=O)O)cc1; 1Nal = N[C@@H](Cc1cccc2ccccc12)C(=O)O; 2Nal = N[C@@H](Cc1ccc2ccccc2c1)C(=O)O

Assays:
[1] = target: Sushi domains (SD1/2) protein of GABAB1a (GB1a); test: FP competition vs TAMRA AJAP-1probe
Sequence of Sushi domains (SD1/2) protein of GABAB1a (GB1a) (Q9Z0U4 29-158): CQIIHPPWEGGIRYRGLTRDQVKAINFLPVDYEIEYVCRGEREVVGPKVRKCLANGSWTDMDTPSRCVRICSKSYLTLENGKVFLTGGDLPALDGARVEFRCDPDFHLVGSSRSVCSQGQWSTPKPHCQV

[2] = target: Sushi domains (SD1/2) protein of the GABAB1a (GB1a) subunit, recombinant; test: FP competition
Sequence of Sushi domains (SD1/2) protein of the GABAB1a (GB1a) subunit, recombinant (Q9Z0U4 29-158): as above

B2: EDDSDVWW(Obtyr)GADTD (peptide)
peptide: Ac-EDDSDVWW[Tyr(Bzl)]GADTD-NH2
SMILES: CC(=O)N[C@@H](CCC(=O)O)C(=O)N[C@@H](CC(=O)O)C(=O)N[C@@H](CC(=O)O)C(=O)N[C@@H](CO)C(=O)N[C@@H](CC(=O)O)C(=O)N[C@H](C(=O)N[C@@H](Cc1c[nH]c2ccccc12)C(=O)N[C@@H](Cc1c[nH]c2ccccc12)C(=O)N[C@@H](Cc1ccc(OCc2ccccc2)cc1)C(=O)NCC(=O)N[C@@H](C)C(=O)N[C@@H](CC(=O)O)C(=O)N[C@H](C(=O)N[C@@H](CC(=O)O)C(N)=O)[C@@H](C)O)C(C)C
- Ki [2]: 0.1 µM
- Ki [1]: 0.088 µM

B6: Scr-20 (peptide)
peptide: Ac-[2Nal]EDSDDYDDIDDDW-NH2
SMILES: CC[C@H](C)[C@H](NC(=O)[C@H](CC(=O)O)NC(=O)[C@H](CC(=O)O)NC(=O)[C@H](Cc1ccc(O)cc1)NC(=O)[C@H](CC(=O)O)NC(=O)[C@H](CC(=O)O)NC(=O)[C@H](CO)NC(=O)[C@H](CC(=O)O)NC(=O)[C@H](CCC(=O)O)NC(=O)[C@H](Cc1ccc2ccccc2c1)NC(C)=O)C(=O)N[C@@H](CC(=O)O)C(=O)N[C@@H](CC(=O)O)C(=O)N[C@@H](CC(=O)O)C(=O)N[C@@H](Cc1c[nH]c2ccccc12)C(N)=O
- Ki [1]: 31.2 µM

B7: EDDSDVWW(Aphe)GADTD (peptide)
peptide: Ac-EDDSDVWW[Phe(4-NH2)]GADTD-NH2
SMILES: CC(=O)N[C@@H](CCC(=O)O)C(=O)N[C@@H](CC(=O)O)C(=O)N[C@@H](CC(=O)O)C(=O)N[C@@H](CO)C(=O)N[C@@H](CC(=O)O)C(=O)N[C@H](C(=O)N[C@@H](Cc1c[nH]c2ccccc12)C(=O)N[C@@H](Cc1c[nH]c2ccccc12)C(=O)N[C@@H](Cc1ccc(N)cc1)C(=O)NCC(=O)N[C@@H](C)C(=O)N[C@@H](CC(=O)O)C(=O)N[C@H](C(=O)N[C@@H](CC(=O)O)C(N)=O)[C@@H](C)O)C(C)C
- Ki [2]: 0.1 µM
- Ki [1]: 0.102 µM

B10: EDDSDVWW(2Nala)GADTD (peptide)
peptide: Ac-EDDSDVWW[2Nal]GADTD-NH2
SMILES: CC(=O)N[C@@H](CCC(=O)O)C(=O)N[C@@H](CC(=O)O)C(=O)N[C@@H](CC(=O)O)C(=O)N[C@@H](CO)C(=O)N[C@@H](CC(=O)O)C(=O)N[C@H](C(=O)N[C@@H](Cc1c[nH]c2ccccc12)C(=O)N[C@@H](Cc1c[nH]c2ccccc12)C(=O)N[C@@H](Cc1ccc2ccccc2c1)C(=O)NCC(=O)N[C@@H](C)C(=O)N[C@@H](CC(=O)O)C(=O)N[C@H](C(=O)N[C@@H](CC(=O)O)C(N)=O)[C@@H](C)O)C(C)C
- Ki [2]: 0.1 µM
- Ki [1]: 0.075 µM

B12: EDDSDVWW(1Nala)GADTD (peptide)
peptide: Ac-EDDSDVWW[1Nal]GADTD-NH2
SMILES: CC(=O)N[C@@H](CCC(=O)O)C(=O)N[C@@H](CC(=O)O)C(=O)N[C@@H](CC(=O)O)C(=O)N[C@@H](CO)C(=O)N[C@@H](CC(=O)O)C(=O)N[C@H](C(=O)N[C@@H](Cc1c[nH]c2ccccc12)C(=O)N[C@@H](Cc1c[nH]c2ccccc12)C(=O)N[C@@H](Cc1cccc2ccccc12)C(=O)NCC(=O)N[C@@H](C)C(=O)N[C@@H](CC(=O)O)C(=O)N[C@H](C(=O)N[C@@H](CC(=O)O)C(N)=O)[C@@H](C)O)C(C)C
- Ki [2]: 0.1 µM
- Ki [1]: 0.114 µM

B13: EDDSDVWW(Omtyr)GADTD (peptide)
peptide: Ac-EDDSDVWW[Tyr(Me)]GADTD-NH2
SMILES: COc1ccc(C[C@H](NC(=O)[C@H](Cc2c[nH]c3ccccc23)NC(=O)[C@H](Cc2c[nH]c3ccccc23)NC(=O)[C@@H](NC(=O)[C@H](CC(=O)O)NC(=O)[C@H](CO)NC(=O)[C@H](CC(=O)O)NC(=O)[C@H](CC(=O)O)NC(=O)[C@H](CCC(=O)O)NC(C)=O)C(C)C)C(=O)NCC(=O)N[C@@H](C)C(=O)N[C@@H](CC(=O)O)C(=O)N[C@H](C(=O)N[C@@H](CC(=O)O)C(N)=O)[C@@H](C)O)cc1
- Ki [2]: 0.1 µM
- Ki [1]: 0.109 µM

B16: EDDSDVWW(Oetyr)GADTD (peptide)
peptide: Ac-EDDSDVWW[Tyr(Et)]GADTD-NH2
SMILES: CCOc1ccc(C[C@H](NC(=O)[C@H](Cc2c[nH]c3ccccc23)NC(=O)[C@H](Cc2c[nH]c3ccccc23)NC(=O)[C@@H](NC(=O)[C@H](CC(=O)O)NC(=O)[C@H](CO)NC(=O)[C@H](CC(=O)O)NC(=O)[C@H](CC(=O)O)NC(=O)[C@H](CCC(=O)O)NC(C)=O)C(C)C)C(=O)NCC(=O)N[C@@H](C)C(=O)N[C@@H](CC(=O)O)C(=O)N[C@H](C(=O)N[C@@H](CC(=O)O)C(N)=O)[C@@H](C)O)cc1
- Ki [2]: 0.1 µM
- Ki [1]: 0.113 µM

These reach a lower Ki [1]. Values come first.

- Ki [1]: 0.0065 µM
B1: peptide 34 (peptide)
peptide: Ac-EDDD[Oetyr]IDWGPTSDDD-NH2
SMILES: CCOc1ccc(C[C@H](NC(=O)[C@H](CC(=O)O)NC(=O)[C@H](CC(=O)O)NC(=O)[C@H](CC(=O)O)NC(=O)[C@H](CCC(=O)O)NC(C)=O)C(=O)N[C@H](C(=O)N[C@@H](CC(=O)O)C(=O)N[C@@H](Cc2c[nH]c3ccccc23)C(=O)NCC(=O)N2CCC[C@H]2C(=O)N[C@H](C(=O)N[C@@H](CO)C(=O)N[C@@H](CC(=O)O)C(=O)N[C@@H](CC(=O)O)C(=O)N[C@@H](CC(=O)O)C(N)=O)[C@@H](C)O)[C@@H](C)CC)cc1

- Ki [2]: 0.0271 µM
- fold increased affinity compared to Asp207Trp [2]: 4 fold
- Ki [1]: 0.028 µM
B3: EDDS(Obtyr)… (peptide)
peptide: Ac-EDDS[Tyr(Bzl)]VWWGGADTD-NH2
SMILES: CC(=O)N[C@@H](CCC(=O)O)C(=O)N[C@@H](CC(=O)O)C(=O)N[C@@H](CC(=O)O)C(=O)N[C@@H](CO)C(=O)N[C@@H](Cc1ccc(OCc2ccccc2)cc1)C(=O)N[C@H](C(=O)N[C@@H](Cc1c[nH]c2ccccc12)C(=O)N[C@@H](Cc1c[nH]c2ccccc12)C(=O)NCC(=O)NCC(=O)N[C@@H](C)C(=O)N[C@@H](CC(=O)O)C(=O)N[C@H](C(=O)N[C@@H](CC(=O)O)C(N)=O)[C@@H](C)O)C(C)C

- Ki [2]: 0.0463 µM
- fold increased affinity compared to Asp207Trp [2]: 2 fold
- Ki [1]: 0.046 µM
B4: EDDS(Oetyr)… (peptide)
peptide: Ac-EDDS[Tyr(Et)]VWWGGADTD-NH2
SMILES: CCOc1ccc(C[C@H](NC(=O)[C@H](CO)NC(=O)[C@H](CC(=O)O)NC(=O)[C@H](CC(=O)O)NC(=O)[C@H](CCC(=O)O)NC(C)=O)C(=O)N[C@H](C(=O)N[C@@H](Cc2c[nH]c3ccccc23)C(=O)N[C@@H](Cc2c[nH]c3ccccc23)C(=O)NCC(=O)NCC(=O)N[C@@H](C)C(=O)N[C@@H](CC(=O)O)C(=O)N[C@H](C(=O)N[C@@H](CC(=O)O)C(N)=O)[C@@H](C)O)C(C)C)cc1

- Ki [1]: 0.0015 µM
B5: peptide 20 (peptide)
peptide: EDDDAIDWYDSDDD
modifications: N-terminal acetyl; C-terminal amide; 2Nala (3-(2-naphthyl)-L-alanine) at position 5

- Ki [1]: 0.0053 µM
B8: peptide 32 (peptide)
peptide: Ac-EDDD[Oetyr]IDWYDSDDD-NH2
SMILES: CCOc1ccc(C[C@H](NC(=O)[C@H](CC(=O)O)NC(=O)[C@H](CC(=O)O)NC(=O)[C@H](CC(=O)O)NC(=O)[C@H](CCC(=O)O)NC(C)=O)C(=O)N[C@H](C(=O)N[C@@H](CC(=O)O)C(=O)N[C@@H](Cc2c[nH]c3ccccc23)C(=O)N[C@@H](Cc2ccc(O)cc2)C(=O)N[C@@H](CC(=O)O)C(=O)N[C@@H](CO)C(=O)N[C@@H](CC(=O)O)C(=O)N[C@@H](CC(=O)O)C(=O)N[C@@H](CC(=O)O)C(N)=O)[C@@H](C)CC)cc1

- Ki [1]: 0.0053 µM
B9: peptide 21 (peptide)
peptide: Ac-EDDD[2Nal]IDWGPTSDDD-NH2
SMILES: CC[C@H](C)[C@H](NC(=O)[C@H](Cc1ccc2ccccc2c1)NC(=O)[C@H](CC(=O)O)NC(=O)[C@H](CC(=O)O)NC(=O)[C@H](CC(=O)O)NC(=O)[C@H](CCC(=O)O)NC(C)=O)C(=O)N[C@@H](CC(=O)O)C(=O)N[C@@H](Cc1c[nH]c2ccccc12)C(=O)NCC(=O)N1CCC[C@H]1C(=O)N[C@H](C(=O)N[C@@H](CO)C(=O)N[C@@H](CC(=O)O)C(=O)N[C@@H](CC(=O)O)C(=O)N[C@@H](CC(=O)O)C(N)=O)[C@@H](C)O

- fold increased affinity compared to Asp207Trp [2]: 2 fold
- Ki [1]: 0.043 µM
B11: EDDS(2Nala)… (peptide)
peptide: Ac-EDDS[2Nal]VWWGGADTD-NH2
SMILES: CC(=O)N[C@@H](CCC(=O)O)C(=O)N[C@@H](CC(=O)O)C(=O)N[C@@H](CC(=O)O)C(=O)N[C@@H](CO)C(=O)N[C@@H](Cc1ccc2ccccc2c1)C(=O)N[C@H](C(=O)N[C@@H](Cc1c[nH]c2ccccc12)C(=O)N[C@@H](Cc1c[nH]c2ccccc12)C(=O)NCC(=O)NCC(=O)N[C@@H](C)C(=O)N[C@@H](CC(=O)O)C(=O)N[C@H](C(=O)N[C@@H](CC(=O)O)C(N)=O)[C@@H](C)O)C(C)C

- Ki [1]: 0.0093 µM
B14: peptide 33 (peptide)
peptide: Ac-EDDD[Obtyr]IDWYDSDDD-NH2
SMILES: CC[C@H](C)[C@H](NC(=O)[C@H](Cc1ccc(OCc2ccccc2)cc1)NC(=O)[C@H](CC(=O)O)NC(=O)[C@H](CC(=O)O)NC(=O)[C@H](CC(=O)O)NC(=O)[C@H](CCC(=O)O)NC(C)=O)C(=O)N[C@@H](CC(=O)O)C(=O)N[C@@H](Cc1c[nH]c2ccccc12)C(=O)N[C@@H](Cc1ccc(O)cc1)C(=O)N[C@@H](CC(=O)O)C(=O)N[C@@H](CO)C(=O)N[C@@H](CC(=O)O)C(=O)N[C@@H](CC(=O)O)C(=O)N[C@@H](CC(=O)O)C(N)=O

- Ki [1]: 0.0095 µM
B15: peptide 35 (peptide)
peptide: Ac-EDDD[Obtyr]IDWGPTSDDD-NH2
SMILES: CC[C@H](C)[C@H](NC(=O)[C@H](Cc1ccc(OCc2ccccc2)cc1)NC(=O)[C@H](CC(=O)O)NC(=O)[C@H](CC(=O)O)NC(=O)[C@H](CC(=O)O)NC(=O)[C@H](CCC(=O)O)NC(C)=O)C(=O)N[C@@H](CC(=O)O)C(=O)N[C@@H](Cc1c[nH]c2ccccc12)C(=O)NCC(=O)N1CCC[C@H]1C(=O)N[C@H](C(=O)N[C@@H](CO)C(=O)N[C@@H](CC(=O)O)C(=O)N[C@@H](CC(=O)O)C(=O)N[C@@H](CC(=O)O)C(N)=O)[C@@H](C)O
